Assay results reported in patent publication US11008402 (dated 2021).
Where “and” joins values, the source holds several entries; their conditions need not be identical. Equal values may be shown once. Read-outs that look alike come from different tables or passages of the source. One block for each binder: values may come before it.

Columns and labels:
CD3 (Jurkat cells) = CD3 (Jurkat cells) (human, UniProt P07766); assay: FACS, Jurkat
HER3 (cell surface) [1] = target: HER3 (cell surface) (human); assay: FACS, A375
HER3-Fc ECD [2] = target: HER3-Fc ECD (human); assay: ELISA
EGFR ECD = EGFR ECD (human, UniProt P00533); assay: ELISA
EGFR (cell surface) = EGFR (cell surface) (human, UniProt P00533); assay: FACS, FaDu (EGFR and HER3 positive)
HER3-His ECD [3] = target: HER3-His ECD (human); assay: ELISA
HER3 (cell surface) [4] = target: HER3 (cell surface) (human); assay: FACS, MCF-7
HER3-Fc ECD [5] = target: HER3-Fc ECD (human); assay: ELISA; remark: listed apart in the source
HER3 (cell surface) [6] = target: HER3 (cell surface) (human); assay: FACS, MCF-7; remark: listed apart in the source
HER3 (cell surface) [7] = target: HER3 (cell surface) (human); assay: FACS, SKBR-3 (EGFR and HER3 positive)
HER3-His ECD [8] = target: HER3-His ECD (human); assay: ELISA; remark: listed apart in the source
HER3 (cell surface) [9] = target: HER3 (cell surface) (human); assay: FACS, MCF-7 (Example 22)
HER3-His ECD [10] = target: HER3-His ECD (human); assay: ELISA; remark: listed apart in the source

CD3 (Jurkat cells), sequence (P07766 23-207): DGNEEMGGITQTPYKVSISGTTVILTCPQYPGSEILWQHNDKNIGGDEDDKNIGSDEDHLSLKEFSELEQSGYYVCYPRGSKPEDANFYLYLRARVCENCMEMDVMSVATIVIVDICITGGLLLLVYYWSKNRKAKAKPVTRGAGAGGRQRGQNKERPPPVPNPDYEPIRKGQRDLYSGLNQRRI

EC50 (CD3 (Jurkat cells)): 5.2 nM
B1: scFv3-43-scDb3-43xhuU3-scFv3-43, CD3 arm (antibody)
chain: METDTLLLWVLLLWVPGSTGQVQLQQSGPGLVKPSQTLSLTCAISGDSVSSNRAAWNWIRQSPSRGLEWLGRTYYRSKWYNDYAQSLKSRITINPDTPKNQFSLQLNSVTPEDTAVYYCARDGQLGLDALDIWGQGTMVTVSSGGGGSDIQMTQSPSSLSASVGDRVTITCRASQDIRNYLNWYQQKPGKAPKLLIYYTSRLHSGVPSRFSGSGSGTDFTFTISSLQPEDIATYYCQQGNTLPWTFGQGTKLEIKRGGGGSGGGGSGGGGSQVQLVQSGAEVKKPGSSVKVSCKASGGTFSGYTMNWVRQAPGQGLEWMGLINPYKGVSTYNGKFKDRVTITADKSTSTAYMELSSLRSEDTAVYYCARSGYYGDSDWYFDVWGQGTLVTVSSGGGGSQAGLTQPPAVSVAPGQTASITCGRDNIGSRSVHWYQQKPGQAPVLVVYDDSDRPAGIPERFSGSNYENTATLTISRVEAGDEADYYCQVWGITSDHVVFGGGTKLTVLAAAGGSGGGGSGGGTQVQLQQSGPGLVKPSQTLSLTCAISGDSVSSNRAAWNWIRQSPSRGLEWLGRTYYRSKWYNDYAQSLKSRITINPDTPKNQFSLQLNSVTPEDTAVYYCARDGQLGLDALDIWGQGTMVTVSSGGGGSGGGGSGGGGSQAGLTQPPAVSVAPGQTASITCGRDNIGSRSVHWYQQKPGQAPVLVVYDDSDRPAGIPERFSGSNYENTATLTISRVEAGDEADYYCQVWGITSDHVVFGGGTKLTVLGSL

EC50 (HER3-His ECD [3]): 1.9 nM
B5: scDb 4D5x3-43-Fc, HER3 arm (antibody, V domains shown)
VH: QVQLQQSGPGLVKPSQTLSLTCAISGDSVSSNRAAWNWIRQSPSRGLEWLGRTYYRSKWYNDYAQSLKSRITINPDTPKNQFSLQLNSVTPEDTAVYYCARDGQLGLDALDIWGQGTMVTVSS
VL: QAGLTQPPAVSVAPGQTASITCGRDNIGSRSVHWYQQKPGQAPVLVVYDDSDRPAGIPERFSGSNYENTATLTISRVEAGDEADYYCQVWGITSDHVVFGGGTKLTVLG

EC50 (HER3 (cell surface) [4]): 0.0316 nM and 0.0314 nM | EC50 (HER3-Fc ECD [5]): 0.81 nM
B7: scDb 3-43xCD3-scFv 3-43, HER3 arms (antibody, V domains shown)
VH: QVQLQQSGPGLVKPSQTLSLTCAISGDSVSSNRAAWNWIRQSPSRGLEWLGRTYYRSKWYNDYAQSLKSRITINPDTPKNQFSLQLNSVTPEDTAVYYCARDGQLGLDALDIWGQGTMVTVSS
VL: QAGLTQPPAVSVAPGQTASITCGRDNIGSRSVHWYQQKPGQAPVLVVYDDSDRPAGIPERFSGSNYENTATLTISRVEAGDEADYYCQVWGITSDHVVFGGGTKLTVLG

EC50 (HER3-His ECD [10]): 0.24 nM
B12: scDb hu225x3-43-Fc, HER3 arm (antibody, V domains shown)
VH: QVQLQQSGPGLVKPSQTLSLTCAISGDSVSSNRAAWNWIRQSPSRGLEWLGRTYYRSKWYNDYAQSLKSRITINPDTPKNQFSLQLNSVTPEDTAVYYCARDGQLGLDALDIWGQGTMVTVSS
VL: QAGLTQPPAVSVAPGQTASITCGRDNIGSRSVHWYQQKPGQAPVLVVYDDSDRPAGIPERFSGSNYENTATLTISRVEAGDEADYYCQVWGITSDHVVFGGGTKLTVLG

EC50 (HER3-His ECD [3]): 0.24 nM
B13: scDb 2-35x3-43-Fc, HER3 arm (antibody, V domains shown)
VH: QVQLQQSGPGLVKPSQTLSLTCAISGDSVSSNRAAWNWIRQSPSRGLEWLGRTYYRSKWYNDYAQSLKSRITINPDTPKNQFSLQLNSVTPEDTAVYYCARDGQLGLDALDIWGQGTMVTVSS
VL: QAGLTQPPAVSVAPGQTASITCGRDNIGSRSVHWYQQKPGQAPVLVVYDDSDRPAGIPERFSGSNYENTATLTISRVEAGDEADYYCQVWGITSDHVVFGGGTKLTVLG

More lines, now with the values behind:

B2: scDb 3-43xCD3, CD3 arm (antibody)
chain: METDTLLLWVLLLWVPGSTGQVQLQQSGPGLVKPSQTLSLTCAISGDSVSSNRAAWNWIRQSPSRGLEWLGRTYYRSKWYNDYAQSLKSRITINPDTPKNQFSLQLNSVTPEDTAVYYCARDGQLGLDALDIWGQGTMVTVSSGGGGSDIQMTQSPSSLSASVGDRVTITCRASQDIRNYLNWYQQKPGKAPKLLIYYTSRLHSGVPSRFSGSGSGTDFTFTISSLQPEDIATYYCQQGNTLPWTFGQGTKLEIKRGGGGSGGGGSGGGGSQVQLVQSGAEVKKPGSSVKVSCKASGGTFSGYTMNWVRQAPGQGLEWMGLINPYKGVSTYNGKFKDRVTITADKSTSTAYMELSSLRSEDTAVYYCARSGYYGDSDWYFDVWGQGTLVTVSSGGGGSQAGLTQPPAVSVAPGQTASITCGRDNIGSRSVHWYQQKPGQAPVLVVYDDSDRPAGIPERFSGSNYENTATLTISRVEAGDEADYYCQVWGITSDHVVFGGGTKLTVLAAAHHHHHH
EC50 (CD3 (Jurkat cells)): 2.4 nM and 3.1 nM

B3: scFv3-43-Fc-scTRAIL, HER3 arm (antibody)
chain: QVQLQQSGPGLVKPSQTLSLTCAISGDSVSSNRAAWNWIRQSPSRGLEWLGRTYYRSKWYNDYAQSLKSRITINPDTPKNQFSLQLNSVTPEDTAVYYCARDGQLGLDALDIWGQGTMVTVSSGGGGSGGGGSGGGGSQAGLTQPPAVSVAPGQTASITCGRDNIGSRSVHWYQQKPGQAPVLVVYDDSDRPAGIPERFSGSNYENTATLTISRVEAGDEADYYCQVWGITSDHVVFGGGTKLTVLG
EC50 (HER3 (cell surface) [1]): 1.19 nM | EC50 (HER3-Fc ECD [2]): 0.33 nM

B4: Db3-43xhu225-Ig, EGFR arm (antibody)
chain 1: EVQLVESGGGLVQPGGSLRLSCAASGFSLTNYGVHWVRQAPGKGLEWLGVIWSGGNTDYNTPFTSRFTISRDNSKNTLYLQMNSLRAEDTAVYYCARALTYYDYEFAYWGQGTTVTVSSGGGGSQAGLTQPPAVSVAPGQTASITCGRDNIGSRSVHWYQQKPGQAPVLVVYDDSDRPAGIPERFSGSNYENTATLTISRVEAGDEADYYCQVWGITSDHVVFGGGTKLTVLASTKGPSVFPLAPSSKSTSGGTAALGCLVKDYFPEPVTVSWNSGALTSGVHTFPAVLQSSGLYSLSSVVTVPSSSLGTQTYICNVNHKPSNTKVDKKVEPKSCDKTHTCPPCPAPPVAGPSVFLFPPKPKDTLMISRTPEVTCVVVDVSHEDPEVKFNWYVDGVEVHNAKTKPREEQYNSTYRVVSVLTVLHQDWLNGKEYKCKVSNKGLPSSIEKTISKAKGQPREPQVYTLPPSRDELTKNQVSLTCLVKGFYPSDIAVEWESNGQPENNYKTTPPVLDSDGSFFLYSKLTVDKSRWQQGNVFSCSVMHEALHNHYTQKSLSLSPGK
chain 2: QVQLQQSGPGLVKPSQTLSLTCAISGDSVSSNRAAWNWIRQSPSRGLEWLGRTYYRSKWYNDYAQSLKSRITINPDTPKNQFSLQLNSVTPEDTAVYYCARDGQLGLDALDIWGQGTMVTVSSGGGGSDIQLTQSPSFLSASVGDRVTITCRASQSIGTNIHWYQQKPGKAPKLLIKYASESISGVPSRFSGSGSGTEFTLTISSLQPEDFATYYCQQNNNWPTTFGAGTKLEIKRTVAAPSVFIFPPSDEQLKSGTASVVCLLNNFYPREAKVQWKVDNALQSGNSQESVTEQDSKDSTYSLSSTLTLSKADYEKHKVYACEVTHQGLSSPVTKSFNRGEC
EC50 (EGFR ECD): 0.19 nM | EC50 (EGFR (cell surface)): 0.14 nM

B6: scDbhu225x3-43-Fc (GGGGS), HER3 arm (antibody, V domains shown)
VH: QVQLQQSGPGLVKPSQTLSLTCAISGDSVSSNRAAWNWIRQSPSRGLEWLGRTYYRSKWYNDYAQSLKSRITINPDTPKNQFSLQLNSVTPEDTAVYYCARDGQLGLDALDIWGQGTMVTVSS
VL: QAGLTQPPAVSVAPGQTASITCGRDNIGSRSVHWYQQKPGQAPVLVVYDDSDRPAGIPERFSGSNYENTATLTISRVEAGDEADYYCQVWGITSDHVVFGGGTKLTVLG
EC50 (HER3-His ECD [3]): 0.2 nM

B8: scDb4D5x3-43-LL, HER3 arm (antibody, V domains shown)
VH: QVQLQQSGPGLVKPSQTLSLTCAISGDSVSSNRAAWNWIRQSPSRGLEWLGRTYYRSKWYNDYAQSLKSRITINPDTPKNQFSLQLNSVTPEDTAVYYCARDGQLGLDALDIWGQGTMVTVSS
VL: QAGLTQPPAVSVAPGQTASITCGRDNIGSRSVHWYQQKPGQAPVLVVYDDSDRPAGIPERFSGSNYENTATLTISRVEAGDEADYYCQVWGITSDHVVFGGGTKLTVLG
EC50 (HER3-Fc ECD [5]): 0.93 nM

B9: Db3-43xhu225-Ig, HER3 arm (antibody, V domains shown)
VH: QVQLQQSGPGLVKPSQTLSLTCAISGDSVSSNRAAWNWIRQSPSRGLEWLGRTYYRSKWYNDYAQSLKSRITINPDTPKNQFSLQLNSVTPEDTAVYYCARDGQLGLDALDIWGQGTMVTVSS
VL: QAGLTQPPAVSVAPGQTASITCGRDNIGSRSVHWYQQKPGQAPVLVVYDDSDRPAGIPERFSGSNYENTATLTISRVEAGDEADYYCQVWGITSDHVVFGGGTKLTVLG
EC50 (HER3 (cell surface) [6]): 0.054 nM | EC50 (HER3 (cell surface) [7]): 0.047 nM | EC50 (HER3-His ECD [8]): 0.26 nM

B10: scFv3-43-scDb3-43xhuU3-scFv3-43, HER3 arms (antibody, V domains shown)
VH: QVQLQQSGPGLVKPSQTLSLTCAISGDSVSSNRAAWNWIRQSPSRGLEWLGRTYYRSKWYNDYAQSLKSRITINPDTPKNQFSLQLNSVTPEDTAVYYCARDGQLGLDALDIWGQGTMVTVSS
VL: QAGLTQPPAVSVAPGQTASITCGRDNIGSRSVHWYQQKPGQAPVLVVYDDSDRPAGIPERFSGSNYENTATLTISRVEAGDEADYYCQVWGITSDHVVFGGGTKLTVLG
EC50 (HER3 (cell surface) [4]): 0.0173 nM

B11: scDb 3-43xCD3, HER3 arm (antibody, V domains shown)
VH: QVQLQQSGPGLVKPSQTLSLTCAISGDSVSSNRAAWNWIRQSPSRGLEWLGRTYYRSKWYNDYAQSLKSRITINPDTPKNQFSLQLNSVTPEDTAVYYCARDGQLGLDALDIWGQGTMVTVSS
VL: QAGLTQPPAVSVAPGQTASITCGRDNIGSRSVHWYQQKPGQAPVLVVYDDSDRPAGIPERFSGSNYENTATLTISRVEAGDEADYYCQVWGITSDHVVFGGGTKLTVLG
EC50 (HER3 (cell surface) [4]): 1.1 nM | EC50 (HER3-Fc ECD [5]): 3.3 nM and 4.87 nM | EC50 (HER3 (cell surface) [9]): 1.1 nM
